Reference: article PMC2897767, “Two Distinct Mechanisms for Actin Capping Protein Regulation—Steric and Allosteric Inhibition” (PLoS Biology, 2010)

Legend:
Settings in all cases: both partners purified
[1] = biological target: T1, actin capping protein (CP), chicken α1/β1, CP_full (chicken, UniProt P13127 1-286; P14315 1-277); assay: SPR; as a1, but koff >0.1 s^-1: amount of bound CP at the steady state plotted against the concentration of CP (Michaelis-Menten plots under saturated binding conditions)
[2] = biological target: T1, actin capping protein (CP), chicken …; assay: SPR; GST-fusion protein (GST-V-1, GST-CA or GST-CD) immobilised on a CM5 chip via anti-GST antibodies (up to 200 RU), CP perfused at 20 µl/min; 20°C; 50 mM KCl, 1 mM MgCl2, 0.005% Tween-20, 10 mM imidazole pH 7.0; 1:1 fit, KD from the kinetic rate constants (steady state for several fast-dissociating mutants)
CP (β) D44N = CP (β) D44N (chicken, UniProt P13127 1-286; P14315 1-277, D44N); assay: SPR; as a1, but koff >0.1 s^-1: amount of bound CP at the steady state plotted against the concentration of CP (Michaelis-Menten plots under saturated binding conditions)
CP (β) D63N = CP (β) D63N (chicken, UniProt P13127 1-286; P14315 1-277, D63N); assay: as above
CP (β) D67N = CP (β) D67N (chicken, UniProt P13127 1-286; P14315 1-277, D67N); assay: as above
CP (β) Y64F = CP (β) Y64F (chicken, UniProt P13127 1-286; P14315 1-277, Y64F); assay: SPR; GST-fusion protein (GST-V-1, GST-CA or GST-CD) immobilised on a CM5 chip via anti-GST antibodies (up to 200 RU), CP perfused at 20 µl/min; 20°C; 50 mM KCl, 1 mM MgCl2, 0.005% Tween-20, 10 mM imidazole pH 7.0; 1:1 fit, KD from the kinetic rate constants (steady state for several fast-dissociating mutants)
[3] = biological target: T1, actin capping protein (CP), chicken …; assay: SPR; competition: GST-CA92 immobilised, perfused with 50 nM wild type CP pre-mixed with various concentrations of CARMIL peptides (CA21 up to 500 nM)
[4] = biological target: CPβΔC (chicken α1 full/β1 1–244; a deletion mutant CP lacking the β-tentacle) (chicken, UniProt P13127 1-286; P14315 1-244); assay: crystal structure; complexes formed with 1.2–2.0-fold molar excess of V-1 or peptide and purified by gel filtration; hanging-drop vapor diffusion at 20°C; molecular replacement

Row | Binder | Kd [1] [nM] | koff [1] [s⁻¹] | Kd [2] [nM] | koff [2] [s⁻¹] | kon [2] [M⁻¹ s⁻¹] | binding result [3] | binding result [4] | also measured
1 | GST-CA55 (domain or fragment, CARMIL, mouse, residues 962–1016) FPSVRQEKRSSGLISELPSEEGRRLEHFTKLRPKRNKKQQPTQAAVCTISILPQD | 4000 | > 0.1 |  |  |  |  |  | 
2 | GST-CA63 (domain or fragment, CARMIL, mouse, residues 962–1024) FPSVRQEKRSSGLISELPSEEGRRLEHFTKLRPKRNKKQQPTQAAVCTISILPQDGEQNGLMG | 3300 | > 0.1 |  |  |  |  |  | 
3 | GST-CA76 (domain or fragment, CARMIL, mouse, residues 962–1037) FPSVRQEKRSSGLISELPSEEGRRLEHFTKLRPKRNKKQQPTQAAVCTISILPQDGEQNGLMGRVDEGVDEFFTKK |  |  | 80 | 0.019 | 230000 |  |  | 
4 | GST-CA92 (domain or fragment, CARMIL, mouse, residues 962–1053) FPSVRQEKRSSGLISELPSEEGRRLEHFTKLRPKRNKKQQPTQAAVCTISILPQDGEQNGLMGRVDEGVDEFFTKKVTKMDCKRSSSRSSDA |  |  | 3.3 | 0.0052 | 1.6e+06 |  |  | Kd (CP (β) D44N): 7400 nM; koff (CP (β) D44N): > 0.1 s⁻¹; Kd (CP (β) D63N): 1400 nM; koff (CP (β) D63N): > 0.1 s⁻¹; Kd (CP (β) D67N): 4900 nM; koff (CP (β) D67N): > 0.1 s⁻¹; Kd (CP (β) Y64F): 10 nM; koff (CP (β) Y64F): 0.0046 s⁻¹; kon (CP (β) Y64F): 460000 M⁻¹ s⁻¹
5 | FDSLTVRTSKETDVVNFDDIASSENLLHLTANRPKMPGRRLPG (domain or fragment, CD2AP, human, residues 461–503; cloned into pGEX-6P-1) [GST-CD43] | 260 | > 0.1 |  |  |  |  |  | 
6 | FDSLTVRTSKETDVVNFDDIASSENLLHLTANRPKMPGRRLPGR (domain or fragment, CD2AP, human, residues 461–504; cloned into pGEX-6P-1) [GST-CD44] |  |  | 62 | 0.033 | 540000 |  |  | 
7 | FDSLTVRTSKETDVVNFDDIASSENLLHLTANRPKMPGRRLPGRFNG (domain or fragment, CD2AP, human, residues 461–507; cloned into pGEX-6P-1) [GST-CD47] |  |  | 18 | 0.029 | 1.6e+06 |  |  | 
8 | NLLHLTANRPKMPGRRLPGRFNG (CD2AP, human, residues 485–507; also called CARMIL peptide; source: synthetic peptide, Invitrogen) [CD23, human CD2AP (485–507)] |  |  |  |  |  | binds | binds | 
9 | SYLAHPTRDRAKIQHSRRPPTRG (CKIP-1, human, residues printed as 148–70, read as 148–170 (23 residues); also called CARMIL peptide; source: synthetic peptide, Invitrogen) [CK23, human CKIP-1 (148–70)] |  |  |  |  |  | binds | binds | 
10 | RLEHFTKLRPKRNKKQQPTQA (CARMIL, mouse, residues 985–1005; also called CARMIL peptide; source: synthetic peptide, Invitrogen) [CA21, mouse CARMIL (residues 985–1005)] |  |  |  |  |  | binds | binds | 
